From patent US20080176792A1, “VEGFR-1 TARGETING PEPTIDES” (priority 2000, published 2008)
Bridge positions count the residues as written; N and C are the ends. Ends that are not written are not given here.

Tests used:
KS1767 cells = assay: BRASIL binding of phage to KS1767 cells, with synthetic peptide competition; assay type: cell-based; conditions: for effect of soluble peptide on RGD-4C phage binding to KS1767 cells: competition experiment
Experimental: FIG. 2A. BRASIL method optimization. A single-cell suspension of Kaposi sarcoma-derived cells (KS1767) was incubated with increasing titers of a phage displaying an alpha v integrin-binding motif (RGD-4C phage) or a control phage with no peptide insert (Fd phage). KS1767 cells were chosen because they express high levels of alpha v integrins. Cells and phage were incubated for 4 hours on ice (to prevent phage internalization) and centrifuged for 10 minutes at 10,000 g. The phage bound to the KS1767 cells were recovered by infection of a host E. coli, and plated in LB/tet agar plates at 37° C. overnight. Finally, the phage transducing units were counted. Extremely low backgrounds were observed. Under non-saturated conditions, a conservative mean estimate of the enrichment of RGD-4C phage in relation to Fd phage is 500-1000. This experiment was repeated three times with similar results. Mean and standard deviation are shown.
Cells were harvested with phosphate-buffered saline (PBS) and 5 mM EDTA, washed with MEM, and re-suspended in MEM containing 1% BSA at 10^6 cells/ml and incubated with phage in 1.5 ml Eppendorf tubes. After 4 h, 100 μl of the cell-phage suspension was gently transferred to the top of a non-miscible organic lower phase (200 μl in a 400 μl-Eppendorf tube) and centrifuged at 10,000 g for 10 minutes. The preferred organic phase combination consisted of a mixture of dibutyl phthalate:cyclohexane (9:1 [v/v]; ρ=1.03 g/ml). BRASIL has been attempted with other phthalate admixtures with the appropriate density (for example, dibutyl phthalate:diisooctyl phthalate; 4:6 [v/v]) with similar results. The tube was snap frozen in liquid nitrogen, the bottom of the tube sliced off, and the cell-phage pellet transferred to a new tube. Bound phage were rescued by infection with 200 μl of E. coli K91kan host bacteria in log phase. To evaluate binding specificity, phage and cells were incubated with the cognate or control synthetic peptides for competition assays.
KS1767 cells were detached with cold EDTA and re-suspended in MEM containing 1% BSA. […] The cell suspension was incubated with RGD-4C phage or a control phage with no peptide insert (fd-tet phage). Increasing amounts of either phage were added to the cells in suspension and the cell-phage admixture was incubated for 4 hr on ice. BRASIL was performed on ice to minimize post-binding events such as ligand-receptor internalization by the target cells. The cells were separated by centrifugation through the organic phase as described above. Bound phage were recovered and phage TU were counted. To compare BRASIL to conventional cell panning methods that require an additional washing step, 200 μl of the cell suspension were incubated with phage for 4 hr on ice. […]

RT4 tumor cells = assay: Phage attachment to subconfluent cell monolayer, with peptide competition; assay type: cell-based, human; conditions: increasing amounts of peptide
Experimental: A subconfluent monolayer of RT4 tumor cells was incubated with 1×10^8 T.U. of VHALES (SEQ ID NO:25) phage per well in presence of increasing amounts of VHALES (SEQ ID NO:25) and control peptide. […] Bound phage were detected after intensive washing by infection with log phase K91 bacteria and plating of serial dilutions.
All cells were grown to subconfluency in 48 well plates and free binding sites were blocked with 800 μl 30% FCS/DMEM (blocking medium) for 1 hour at 37° C. The blocking solution was then replaced by 200 μl 10% FCS/DMEM (washing medium) containing 1×10^8 cfu of each phage per well. After incubation for 2 hours at 4° C. to prevent unspecific endocytosis, unbound phage were removed by washing 7 times with 500 μl washing medium. For competition experiments increasing concentrations of the corresponding peptide or a control peptide (CARAC, SEQ ID NO:5) were added during the incubation. Bound phage were determined by infection with 500 μl log phase K91 culture and plating of serial dilutions.

human VEGFR-1 = biological target: T1, human VEGFR-1 (Homo sapiens, UniProt P17948); assay: Phage binding to immobilized purified receptor, with competition; conditions: for blocking of clone 19 phage binding to VEGF-R1 by competitor: competitor pre-incubated with immobilized receptor, PDGF-BB up to 200 ng/ml
T1 construct: purchased Oncogene Research Products, Boston, Mass
Experimental: (§1) Human VEGFR-1, human VEGFR-2, rat NRP-1, and rat NRP-2 (1 μg in 50 μl of PBS) were immobilized on microtiter well plates overnight at 4° C. The wells were washed twice with PBS, blocked with PBS containing 3% BSA for 2 h at room temperature, and then incubated with 10^9 TU of either […] (SEQ ID NO:6) phage, […] (SEQ ID NO:11) phage, or fd-tet phage in 50 μl of PBS/1.5% BSA. After 1 hr at room temperature, wells were washed nine times with PBS and phage were recovered by bacterial infection. Serial dilutions were plated onto Luria-Bertani (LB) medium supplemented with tetracycline. VEGF165, PDGF-BB, or synthetic peptides were used at the indicated concentrations and pre-incubated with the immobilized proteins to evaluate competitive inhibition of phage binding. ELISA with either polyclonal anti-VEGFR-1 serum or anti-human IgG (VEGFR-2, NRP-1, and NRP-2) confirmed the presence and concentration of the immobilized receptors on the microtiter plates. […] Following three washes, VEGF165 binding was evaluated by ELISA by using anti-VEGF specific antibodies (data not shown).

rat NRP-1 = biological target: T2, rat NRP-1 (Rattus norvegicus, UniProt Q9QWJ9); assay: as above; conditions: competitor pre-incubated with immobilized receptor; PDGF-BB up to 200 ng/ml
T2 construct: purchased R&D Systems Minneapolis, Minn
Experimental: as §1

porcine bladder mucosa = assay: Dot blot chamber assay after removal of the GAG-layer; assay type: cell-based; conditions: 0.1M HCl for 2 min; relative to untreated mucosa set to 1
Experimental: FIG. 10. Influence of the GAG-layer on phage binding. In the dot blot chamber assay portions of a porcine bladder mucosa were treated with 0.1M HCl for 2 min prior to remove the GAG-layer. Binding to treated surface is given relative to untreated surface, that was set as 1. Bound phage were detected after intensive washing by infection with log phase K91 bacteria and plating of serial dilutions.
Removal of the glucosaminoglycan- (GAG-) layer on intact mucosa samples was performed as a dot blot chamber assay. Half of the wells were incubated with 200 μl 0.1M HCl per well for 2 min, intensely rinsed with blocking solution and both parts blocked as before. Results are given relative to fd-tet phage to untreated mucosa, that was set to 1.
Using the same assay the influence of the glucosaminoglycan (GAG) layer on binding of several phage to intact mucosa was examined. The GAG-layer was removed as described above. Half of the mucosa of human ureter and porcine bladder specimens were treated inside the dot blot chamber with […] for 2 min, extensively washed and the binding assay performed as before.

[1] = biological target: alpha v integrins on KS1767 cells (Kaposi sarcoma-derived cell line) (UniProt P06756); assay: BRASIL, phage on KS1767 cells in suspension, transducing units recovered
[2] = biological target: alpha v integrins on KS1767 cells (Kaposi sarcoma-derived cell line) (UniProt P06756); assay: BRASIL on KS1767 cells, competition with peptide in solution
recombinant rat NRP-1/Fc = biological target: T3, recombinant rat NRP-1/Fc (rat; human, UniProt Q9QWJ9 22-854, limits assumed); assay: competition of clone-19 phage binding to immobilized NRP-1 (not shown)
T3 construct: Bought receptor/Fc chimera; also called rat Neuropilin-1; neuropilin-1; not shown: Fc region of human IgG1
T3 sequence (looked up): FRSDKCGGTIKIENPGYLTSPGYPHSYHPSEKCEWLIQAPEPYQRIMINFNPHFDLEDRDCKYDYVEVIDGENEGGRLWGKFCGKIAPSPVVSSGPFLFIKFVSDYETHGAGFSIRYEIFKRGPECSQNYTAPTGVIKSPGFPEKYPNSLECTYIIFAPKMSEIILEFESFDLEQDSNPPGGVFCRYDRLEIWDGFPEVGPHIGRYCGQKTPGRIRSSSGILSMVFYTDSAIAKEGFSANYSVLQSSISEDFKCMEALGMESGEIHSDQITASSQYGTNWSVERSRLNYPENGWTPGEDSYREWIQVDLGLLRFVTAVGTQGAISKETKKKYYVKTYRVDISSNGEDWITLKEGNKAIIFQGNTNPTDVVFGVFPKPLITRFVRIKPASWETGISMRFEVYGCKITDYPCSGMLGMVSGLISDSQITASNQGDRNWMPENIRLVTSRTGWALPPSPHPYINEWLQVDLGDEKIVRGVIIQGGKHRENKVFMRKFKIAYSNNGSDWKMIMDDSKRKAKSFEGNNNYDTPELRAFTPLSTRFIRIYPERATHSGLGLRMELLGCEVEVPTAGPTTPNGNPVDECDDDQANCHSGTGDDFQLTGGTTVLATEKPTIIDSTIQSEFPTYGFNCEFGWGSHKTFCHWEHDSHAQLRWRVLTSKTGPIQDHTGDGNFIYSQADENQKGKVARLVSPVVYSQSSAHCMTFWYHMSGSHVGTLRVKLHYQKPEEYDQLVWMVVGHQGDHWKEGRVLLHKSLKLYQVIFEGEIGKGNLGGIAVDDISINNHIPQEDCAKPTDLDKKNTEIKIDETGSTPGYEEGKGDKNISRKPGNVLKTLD
Experimental: (§2) Human VEGFR-1, human VEGFR-2, rat NRP-1, and rat NRP-2 (1 μg in 50 μl of PBS) were immobilized on microtiter well plates overnight at 4° C. The wells were washed twice with PBS, blocked with PBS containing 3% BSA for 2 h at room temperature, and then incubated with 10⁹ TU of either […] […] (SEQ ID NO:11) phage, or fd-tet phage in 50 μl of PBS/1.5% BSA. After 1 hr at room temperature, wells were washed nine times with PBS and phage were recovered by bacterial infection. Serial dilutions were plated onto Luria-Bertani (LB) medium supplemented with tetracycline. VEGF₁₆₅, PDGF-BB, or synthetic peptides were used at the indicated concentrations and pre-incubated with the immobilized proteins to evaluate competitive inhibition of phage binding.

[3] = biological target: T4, recombinant human VEGFR-1 (human, UniProt P17948 27-758, limits assumed); assay: competition of clone-19 phage binding to immobilized receptors; reference is NRP-1 (not shown)
T4 construct: Bought; immobilized on microtiter wells (1 ug in 50 ul PBS); also called Flt1
Experimental: as §2

T1 sequence (P17948 27-1338): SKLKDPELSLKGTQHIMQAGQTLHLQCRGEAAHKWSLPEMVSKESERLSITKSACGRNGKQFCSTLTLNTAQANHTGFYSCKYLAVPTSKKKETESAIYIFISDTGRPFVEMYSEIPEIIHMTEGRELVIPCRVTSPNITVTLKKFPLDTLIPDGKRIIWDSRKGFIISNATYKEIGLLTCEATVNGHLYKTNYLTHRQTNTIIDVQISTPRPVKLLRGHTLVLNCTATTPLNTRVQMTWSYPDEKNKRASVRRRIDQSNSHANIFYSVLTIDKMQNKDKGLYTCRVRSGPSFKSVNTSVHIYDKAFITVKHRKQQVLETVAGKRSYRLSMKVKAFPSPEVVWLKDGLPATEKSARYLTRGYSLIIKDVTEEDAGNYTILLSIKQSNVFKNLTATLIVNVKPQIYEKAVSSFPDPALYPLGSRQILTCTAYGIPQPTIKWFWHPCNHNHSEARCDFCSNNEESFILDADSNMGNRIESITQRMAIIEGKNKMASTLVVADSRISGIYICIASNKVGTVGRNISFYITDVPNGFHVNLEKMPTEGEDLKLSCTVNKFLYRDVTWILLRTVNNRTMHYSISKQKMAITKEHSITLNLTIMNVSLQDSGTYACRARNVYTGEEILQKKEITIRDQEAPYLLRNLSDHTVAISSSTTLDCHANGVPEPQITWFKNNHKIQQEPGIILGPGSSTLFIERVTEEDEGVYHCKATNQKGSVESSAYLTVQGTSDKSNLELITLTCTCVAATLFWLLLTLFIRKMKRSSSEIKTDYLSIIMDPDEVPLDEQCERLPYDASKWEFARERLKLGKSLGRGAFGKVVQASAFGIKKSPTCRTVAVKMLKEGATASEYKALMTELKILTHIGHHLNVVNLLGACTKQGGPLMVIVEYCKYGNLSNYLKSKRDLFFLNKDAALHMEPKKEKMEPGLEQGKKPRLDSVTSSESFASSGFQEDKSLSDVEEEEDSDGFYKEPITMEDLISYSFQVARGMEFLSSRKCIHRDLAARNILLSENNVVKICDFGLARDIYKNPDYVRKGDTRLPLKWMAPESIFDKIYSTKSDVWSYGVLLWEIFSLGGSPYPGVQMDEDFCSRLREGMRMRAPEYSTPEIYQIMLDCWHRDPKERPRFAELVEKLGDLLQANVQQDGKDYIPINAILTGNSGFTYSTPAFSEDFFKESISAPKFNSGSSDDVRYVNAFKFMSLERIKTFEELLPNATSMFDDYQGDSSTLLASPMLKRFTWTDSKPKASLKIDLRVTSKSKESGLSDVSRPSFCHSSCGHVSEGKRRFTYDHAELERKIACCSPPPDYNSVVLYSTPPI
Sequence of alpha v integrins on KS1767 cells (Kaposi sarcoma-derived cell line) (P06756 31-1048): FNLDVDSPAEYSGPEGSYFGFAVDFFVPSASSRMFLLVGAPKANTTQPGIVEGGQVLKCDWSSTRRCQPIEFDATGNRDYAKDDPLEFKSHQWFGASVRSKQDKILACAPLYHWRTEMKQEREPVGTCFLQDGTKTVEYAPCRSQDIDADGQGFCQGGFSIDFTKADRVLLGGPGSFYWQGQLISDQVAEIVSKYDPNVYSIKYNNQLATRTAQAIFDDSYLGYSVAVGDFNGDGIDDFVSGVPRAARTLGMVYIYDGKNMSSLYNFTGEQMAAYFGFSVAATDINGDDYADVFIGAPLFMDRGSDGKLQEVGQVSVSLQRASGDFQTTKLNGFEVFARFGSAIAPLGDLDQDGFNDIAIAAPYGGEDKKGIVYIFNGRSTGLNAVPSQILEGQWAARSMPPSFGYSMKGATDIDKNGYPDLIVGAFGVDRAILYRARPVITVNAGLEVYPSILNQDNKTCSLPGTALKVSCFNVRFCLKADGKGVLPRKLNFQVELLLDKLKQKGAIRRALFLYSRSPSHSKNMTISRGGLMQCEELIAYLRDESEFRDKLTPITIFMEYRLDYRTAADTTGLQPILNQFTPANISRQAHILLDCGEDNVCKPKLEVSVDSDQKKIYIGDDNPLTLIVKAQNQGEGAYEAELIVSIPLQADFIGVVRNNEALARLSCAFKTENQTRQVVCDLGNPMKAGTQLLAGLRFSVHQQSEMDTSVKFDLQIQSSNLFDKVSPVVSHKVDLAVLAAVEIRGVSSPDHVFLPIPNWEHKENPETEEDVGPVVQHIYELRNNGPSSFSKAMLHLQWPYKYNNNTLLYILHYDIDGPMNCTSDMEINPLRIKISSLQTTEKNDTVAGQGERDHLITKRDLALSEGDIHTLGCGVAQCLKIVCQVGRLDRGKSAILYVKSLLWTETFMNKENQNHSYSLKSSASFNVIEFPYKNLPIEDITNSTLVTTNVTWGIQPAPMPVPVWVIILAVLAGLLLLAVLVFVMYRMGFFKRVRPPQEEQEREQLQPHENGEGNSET
T2 sequence (Q9QWJ9 with tags, fused parts or gaps limits assumed): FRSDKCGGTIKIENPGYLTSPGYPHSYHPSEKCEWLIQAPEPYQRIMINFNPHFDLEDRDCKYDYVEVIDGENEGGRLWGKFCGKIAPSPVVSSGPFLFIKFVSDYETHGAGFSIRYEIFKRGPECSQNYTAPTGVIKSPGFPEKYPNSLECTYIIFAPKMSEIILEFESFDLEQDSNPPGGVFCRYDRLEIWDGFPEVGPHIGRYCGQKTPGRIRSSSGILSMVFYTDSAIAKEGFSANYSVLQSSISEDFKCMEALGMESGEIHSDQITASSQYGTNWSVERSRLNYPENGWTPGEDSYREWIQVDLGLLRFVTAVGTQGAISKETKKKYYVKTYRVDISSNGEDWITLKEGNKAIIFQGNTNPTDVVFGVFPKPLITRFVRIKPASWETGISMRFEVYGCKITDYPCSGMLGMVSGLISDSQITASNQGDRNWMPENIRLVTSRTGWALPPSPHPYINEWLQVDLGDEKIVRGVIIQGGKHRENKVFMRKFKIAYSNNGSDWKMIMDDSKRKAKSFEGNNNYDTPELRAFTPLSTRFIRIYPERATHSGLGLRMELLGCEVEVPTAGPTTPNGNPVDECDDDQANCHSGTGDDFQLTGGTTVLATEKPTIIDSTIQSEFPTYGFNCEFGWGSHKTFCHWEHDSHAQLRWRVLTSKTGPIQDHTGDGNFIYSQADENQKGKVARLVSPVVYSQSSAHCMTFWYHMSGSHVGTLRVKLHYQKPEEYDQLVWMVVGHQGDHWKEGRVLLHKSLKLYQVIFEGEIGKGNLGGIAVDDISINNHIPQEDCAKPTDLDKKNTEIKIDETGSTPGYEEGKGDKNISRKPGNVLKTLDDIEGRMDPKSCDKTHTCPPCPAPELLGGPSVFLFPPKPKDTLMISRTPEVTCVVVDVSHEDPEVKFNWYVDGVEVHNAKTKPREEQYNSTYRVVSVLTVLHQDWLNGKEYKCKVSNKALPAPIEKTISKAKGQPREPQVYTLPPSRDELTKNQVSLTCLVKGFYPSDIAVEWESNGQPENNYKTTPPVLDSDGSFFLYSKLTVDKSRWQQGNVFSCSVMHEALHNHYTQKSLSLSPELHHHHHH
T4 sequence (P17948 27-758 limits assumed): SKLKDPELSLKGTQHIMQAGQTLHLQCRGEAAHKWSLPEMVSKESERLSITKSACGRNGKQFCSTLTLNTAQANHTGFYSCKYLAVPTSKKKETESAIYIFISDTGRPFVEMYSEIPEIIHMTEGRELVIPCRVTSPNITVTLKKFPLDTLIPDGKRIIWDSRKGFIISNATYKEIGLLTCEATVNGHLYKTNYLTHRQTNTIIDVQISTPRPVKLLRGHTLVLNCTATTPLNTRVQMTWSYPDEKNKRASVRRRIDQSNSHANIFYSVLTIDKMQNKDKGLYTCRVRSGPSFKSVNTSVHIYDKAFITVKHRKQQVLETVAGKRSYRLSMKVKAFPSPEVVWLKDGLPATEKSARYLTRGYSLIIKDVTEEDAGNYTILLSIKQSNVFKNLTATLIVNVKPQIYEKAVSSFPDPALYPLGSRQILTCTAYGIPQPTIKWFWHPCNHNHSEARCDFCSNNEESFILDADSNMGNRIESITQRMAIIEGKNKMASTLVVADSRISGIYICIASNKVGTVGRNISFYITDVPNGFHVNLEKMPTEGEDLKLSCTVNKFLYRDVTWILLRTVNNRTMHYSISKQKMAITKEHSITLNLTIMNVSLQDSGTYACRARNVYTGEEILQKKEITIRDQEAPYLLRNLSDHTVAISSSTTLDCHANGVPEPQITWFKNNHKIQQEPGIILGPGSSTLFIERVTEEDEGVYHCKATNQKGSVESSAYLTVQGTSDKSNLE

Molecule: O=c1[nH]cc(F)c(=O)[nH]1 [CARAC, reference compound]
- effect of soluble peptide on RGD-4C phage binding to KS1767 cells (KS1767 cells): no effect
- effect of peptide on VHALES phage binding to RT4 tumor cells (RT4 tumor cells): unchanged and not

Molecule: CDCRGDCFC [RGD-4C peptide]
- effect of soluble peptide on RGD-4C phage binding to KS1767 cells (KS1767 cells): completely inhibited
- inhibition of RGD-4C phage binding to KS1767 cells (KS1767 cells; synthetic peptide in solution): 99.99%

Molecule: CPQPRPLC
- efficiency in blocking phage binding to VEGF-R1 relative to NRP-1 (human VEGFR-1; clone 19 phage, VEGF-R1 versus NRP-1): approximately 100 fold
- blocking of clone 19 phage binding to VEGF-R1 by competitor (human VEGFR-1): blocked
- blocking of clone 19 phage binding to NRP-1 by competitor (rat NRP-1): blocked

Molecule: CRIRMSAGC
- change of phage binding after GAG-removal (porcine bladder mucosa): unchanged

Molecule: GRGESP
- effect of soluble peptide on RGD-4C phage binding to KS1767 cells (KS1767 cells): no effect

Molecule: PDGF-BB: PDGF-BB obtained commercially (R&D Systems) [reference compound]
- blocking of clone 19 phage binding to VEGF-R1 by competitor (human VEGFR-1): not
- blocking of clone 19 phage binding to NRP-1 by competitor (rat NRP-1): not

Molecule: RGD-4C phage (peptide)
- enrichment in relation to Fd phage [1]: 500 to 1000 fold
- ratio of RGD4C to Fd phage recovered (enrichment) [1]: 100 to 500 fold

Molecule: VHALES [VHALES peptide]
- effect of peptide on VHALES phage binding to RT4 tumor cells (RT4 tumor cells): reduced
- effect of peptide on VHALES phage binding to RT4 tumor cells (RT4 tumor cells; listed as VHALE): inhibited

B1: synthetic RGD-4C peptide, containing the targeting sequence … (SEQ ID NO:9) (peptide)
peptide: CDCRGDCFC
modifications: disulfide (positions not given here); not fully specified; also: cyclized, bonds not given here
- percent inhibition of RGD-4C phage binding [2]: 100%

B2: synthetic cognate peptide CPQPRPLC (SEQ ID NO:6) (peptide)
peptide: CPQPRPLC
modifications: disulfide 1-8 (inferred)
- binding result (recombinant rat NRP-1/Fc): binds
- fold efficiency in blocking phage binding, VEGF-R1 against NRP-1 [3]: ~100 fold
